Experimental data published in the supplement of paper PMC9112550, “Optimization of the antimicrobial peptide Bac7 by deep mutational scanning” (BMC Biology, 2022).

Test system: Escherichia coli TOP10
Experiment: shrunken log2 fold change of peptide-encoding DNA abundance (4.5 h post-induction vs induction); higher = less antimicrobial activity (less host growth inhibition)
Settings: time post-induction: 4.5 h; library: site-saturation at positions 5, 18, 19, 20
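Also: peptides expressed intracellularly from a pBAD plasmid library in pooled LB shake-flask culture, induced with 0.3% L-arabinose, DNA abundance read by NGS, three biological replicates, DESeq2 with apeglm shrinkage.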

RRIRYRPPRLPRPRPRPPWFPRP
shrunken log2 fold change: -0.205

RRIRCRPPRLPRPRPRPLSPPRP
shrunken log2 fold change: 0.107

RRIRDRPPRLPRPRPRPYLFPRP
shrunken log2 fold change: 1.15

RRIRHRPPRLPRPRPRPPHFPRP
shrunken log2 fold change: 0.297

RRIRDRPPRLPRPRPRPEGQPRP
shrunken log2 fold change: 1.15

RRIRQRPPRLPRPRPRPRSRPRP
shrunken log2 fold change: 0.0402

RRIRRRPPRLPRPRPRPHFQPRP
shrunken log2 fold change: -0.0173

RRIRARPPRLPRPRPRPPDDPRP
shrunken log2 fold change: 1.2

RRIRWRPPRLPRPRPRPVTKPRP
shrunken log2 fold change: 0.235

RRIRCRPPRLPRPRPRPNKPPRP
shrunken log2 fold change: 0.0511

RRIRCRPPRLPRPRPRPQSGPRP
shrunken log2 fold change: -0.142

RRIRPRPPRLPRPRPRPRYLPRP
shrunken log2 fold change: -0.402

RRIRSRPPRLPRPRPRPHFMPRP
shrunken log2 fold change: -0.48

RRIRIRPPRLPRPRPRPNWMPRP
shrunken log2 fold change: -0.341

RRIRIRPPRLPRPRPRPNEFPRP
shrunken log2 fold change: -0.295

RRIRPRPPRLPRPRPRPWSNPRP
shrunken log2 fold change: -0.52

RRIRDRPPRLPRPRPRPLEKPRP
shrunken log2 fold change: 0.0929

RRIRNRPPRLPRPRPRPQEQPRP
shrunken log2 fold change: 0.042

RRIRIRPPRLPRPRPRPYSIPRP
shrunken log2 fold change: -0.129

RRIRERPPRLPRPRPRPKTDPRP
shrunken log2 fold change: -0.497

RRIRGRPPRLPRPRPRPHERPRP
shrunken log2 fold change: 0.878

RRIRYRPPRLPRPRPRPIKDPRP
shrunken log2 fold change: -0.171

RRIRARPPRLPRPRPRPQAPPRP
shrunken log2 fold change: 0.238

RRIRWRPPRLPRPRPRPFAFPRP
shrunken log2 fold change: -0.195

RRIRPRPPRLPRPRPRPRFFPRP
shrunken log2 fold change: 0.211

RRIRCRPPRLPRPRPRPQTYPRP
shrunken log2 fold change: -0.727

RRIRGRPPRLPRPRPRPFQAPRP
shrunken log2 fold change: 0.112

RRIRPRPPRLPRPRPRPEVCPRP
shrunken log2 fold change: 0.138

RRIRRRPPRLPRPRPRPASAPRP
shrunken log2 fold change: 0.227

RRIRQRPPRLPRPRPRPDIAPRP
shrunken log2 fold change: 0.111

RRIRNRPPRLPRPRPRPVPMPRP
shrunken log2 fold change: -0.0134

RRIRSRPPRLPRPRPRPLIKPRP
shrunken log2 fold change: -0.258

RRIRYRPPRLPRPRPRPWTRPRP
shrunken log2 fold change: 0.0101

RRIRHRPPRLPRPRPRPSWGPRP
shrunken log2 fold change: -0.0416

RRIRDRPPRLPRPRPRPHWHPRP
shrunken log2 fold change: -0.192

RRIRFRPPRLPRPRPRPSTVPRP
shrunken log2 fold change: -0.325

RRIRARPPRLPRPRPRPEFPPRP
shrunken log2 fold change: 0.962

RRIRPRPPRLPRPRPRPINVPRP
shrunken log2 fold change: -0.366

RRIRPRPPRLPRPRPRPFTCPRP
shrunken log2 fold change: -0.206

RRIRERPPRLPRPRPRPYDGPRP
shrunken log2 fold change: -0.0116

RRIRNRPPRLPRPRPRPQPVPRP
shrunken log2 fold change: 0.0704

RRIRKRPPRLPRPRPRPYVHPRP
shrunken log2 fold change: -0.431

RRIRLRPPRLPRPRPRPLEWPRP
shrunken log2 fold change: 0.0509

RRIRMRPPRLPRPRPRPEACPRP
shrunken log2 fold change: 3.9

RRIRLRPPRLPRPRPRPPMFPRP
shrunken log2 fold change: -0.242

RRIRIRPPRLPRPRPRPFFQPRP
shrunken log2 fold change: -0.412

RRIRTRPPRLPRPRPRPFQPPRP
shrunken log2 fold change: 0.0737

RRIRNRPPRLPRPRPRPNNKPRP
shrunken log2 fold change: -0.63

RRIRARPPRLPRPRPRPNMSPRP
shrunken log2 fold change: 0.12

RRIRCRPPRLPRPRPRPCQNPRP
shrunken log2 fold change: -0.0888

RRIRHRPPRLPRPRPRPLPKPRP
shrunken log2 fold change: 0.389

RRIRVRPPRLPRPRPRPCSQPRP
shrunken log2 fold change: -0.0327

RRIRARPPRLPRPRPRPCFHPRP
shrunken log2 fold change: -0.0446

RRIRSRPPRLPRPRPRPQNSPRP
shrunken log2 fold change: -0.207

RRIRIRPPRLPRPRPRPICSPRP
shrunken log2 fold change: -0.118

RRIRSRPPRLPRPRPRPSDDPRP
shrunken log2 fold change: -0.274

RRIRGRPPRLPRPRPRPRNQPRP
shrunken log2 fold change: 0.402

RRIRKRPPRLPRPRPRPLKLPRP
shrunken log2 fold change: 0.0766

RRIRMRPPRLPRPRPRPIEHPRP
shrunken log2 fold change: -0.0129

RRIRKRPPRLPRPRPRPMPAPRP
shrunken log2 fold change: 0.15

RRIRFRPPRLPRPRPRPELMPRP
shrunken log2 fold change: 0.179

RRIRQRPPRLPRPRPRPLWMPRP
shrunken log2 fold change: -0.165

RRIRIRPPRLPRPRPRPTALPRP
shrunken log2 fold change: 0.0424

RRIRHRPPRLPRPRPRPIHLPRP
shrunken log2 fold change: -0.541

RRIRDRPPRLPRPRPRPFWPPRP
shrunken log2 fold change: 0.227

RRIRARPPRLPRPRPRPADDPRP
shrunken log2 fold change: 0.409

RRIRFRPPRLPRPRPRPDKKPRP
shrunken log2 fold change: -0.0461

RRIRARPPRLPRPRPRPIHQPRP
shrunken log2 fold change: -0.0255

RRIRVRPPRLPRPRPRPQELPRP
shrunken log2 fold change: -0.0343

RRIRMRPPRLPRPRPRPTYRPRP
shrunken log2 fold change: 0.422

RRIRMRPPRLPRPRPRPMCSPRP
shrunken log2 fold change: -0.00161

RRIRKRPPRLPRPRPRPFMMPRP
shrunken log2 fold change: -0.1

RRIRARPPRLPRPRPRPCGMPRP
shrunken log2 fold change: 0.0551

RRIRPRPPRLPRPRPRPCQFPRP
shrunken log2 fold change: -0.246

RRIRMRPPRLPRPRPRPCRPPRP
shrunken log2 fold change: 0.00908

RRIRVRPPRLPRPRPRPNWGPRP
shrunken log2 fold change: 0.119

RRIRHRPPRLPRPRPRPMRKPRP
shrunken log2 fold change: 0.0179

RRIRERPPRLPRPRPRPLVFPRP
shrunken log2 fold change: -0.153

RRIRSRPPRLPRPRPRPEYNPRP
shrunken log2 fold change: -0.229

RRIRRRPPRLPRPRPRPVGNPRP
shrunken log2 fold change: -0.0457

RRIRFRPPRLPRPRPRPVYVPRP
shrunken log2 fold change: -0.93

RRIRHRPPRLPRPRPRPHMIPRP
shrunken log2 fold change: 0.13

RRIRARPPRLPRPRPRPTSGPRP
shrunken log2 fold change: 0.343

RRIRHRPPRLPRPRPRPVEEPRP
shrunken log2 fold change: 0.00298

RRIRGRPPRLPRPRPRPDIPPRP
shrunken log2 fold change: 0.23

RRIRRRPPRLPRPRPRPDIDPRP
shrunken log2 fold change: 0.0367

RRIRWRPPRLPRPRPRPGQRPRP
shrunken log2 fold change: 0.153

RRIRARPPRLPRPRPRPVCKPRP
shrunken log2 fold change: 0.195

RRIRDRPPRLPRPRPRPDWAPRP
shrunken log2 fold change: 0.534

RRIRWRPPRLPRPRPRPVKLPRP
shrunken log2 fold change: -0.0719

RRIRLRPPRLPRPRPRPGAPPRP
shrunken log2 fold change: 0.672
